Results from paper PMC12612064.

Molecular target: Pre-cleaved FUS (tag-free Fused in sarcoma) (UniProt P35637)
Experiment: fluorescence correlation spectroscopy

UniProt P35637, sequence (P35637 whole entry, the tested form may be a part): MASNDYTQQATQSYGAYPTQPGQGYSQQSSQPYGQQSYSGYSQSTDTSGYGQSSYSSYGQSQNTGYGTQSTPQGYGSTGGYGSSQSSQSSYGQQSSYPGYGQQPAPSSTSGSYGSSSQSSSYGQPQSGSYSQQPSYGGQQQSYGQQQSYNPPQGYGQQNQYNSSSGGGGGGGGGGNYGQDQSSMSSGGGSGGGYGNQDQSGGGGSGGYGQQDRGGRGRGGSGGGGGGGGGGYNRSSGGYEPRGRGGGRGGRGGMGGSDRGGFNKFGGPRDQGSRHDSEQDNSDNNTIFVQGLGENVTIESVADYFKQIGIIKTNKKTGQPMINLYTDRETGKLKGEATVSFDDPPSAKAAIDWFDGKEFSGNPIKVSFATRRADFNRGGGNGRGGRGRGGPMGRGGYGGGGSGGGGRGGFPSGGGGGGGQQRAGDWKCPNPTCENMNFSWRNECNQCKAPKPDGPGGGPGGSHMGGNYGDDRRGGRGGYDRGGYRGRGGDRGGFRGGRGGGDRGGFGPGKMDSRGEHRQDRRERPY

Cy3-labeled pre-cleaved FUS (from UniProt P35637 1-526) (natural protein)
second critical concentration (condensate formation): 1 µM
